Measurements reported in patent publication US20010021505A1.

Experiments:
[1] = target: NPM/ALK fusion protein (human); assay: co-immunoprecipitation with anti-ALK serum, immunoblot, SUP-M2 lysates
[2] = target: wild-type NPM (nucleophosmin) (human) (UniProt P06748); assay: co-immunoprecipitation, anti-NPM immunoblot
[3] = target: 85 kDa subunit of phosphatidylinositol 3-kinase (PI3-K) (human) (UniProt P27986); assay: co-immunoprecipitation, immunoblot, SUP-M2 lysates
[4] = target: T1, Src homologous and collagen (SHC) protein (human) (UniProt P29353); assay: co-immunoprecipitation, immunoblot, SUP-M2 lysates
T1 sequence (tyrosine-phosphorylated (sites not given), looked up): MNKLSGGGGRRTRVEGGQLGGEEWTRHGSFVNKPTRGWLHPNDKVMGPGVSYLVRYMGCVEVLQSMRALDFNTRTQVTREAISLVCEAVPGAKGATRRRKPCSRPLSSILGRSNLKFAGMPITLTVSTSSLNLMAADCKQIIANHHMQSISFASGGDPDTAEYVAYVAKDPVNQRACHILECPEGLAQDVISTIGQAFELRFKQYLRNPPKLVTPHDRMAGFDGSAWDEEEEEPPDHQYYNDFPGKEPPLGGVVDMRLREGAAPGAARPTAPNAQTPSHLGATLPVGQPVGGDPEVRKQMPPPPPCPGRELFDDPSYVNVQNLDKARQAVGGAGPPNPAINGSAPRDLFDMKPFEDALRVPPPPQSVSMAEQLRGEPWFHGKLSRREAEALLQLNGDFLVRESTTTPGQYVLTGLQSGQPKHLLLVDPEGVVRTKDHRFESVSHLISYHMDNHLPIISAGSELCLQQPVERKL

[5] = target: phospholipase-Cγ (PLC-γ) (human) (UniProt P19174); assay: co-immunoprecipitation, immunoblot, SUP-M2 lysates
UniProt P19174, sequence (P19174 2-1290): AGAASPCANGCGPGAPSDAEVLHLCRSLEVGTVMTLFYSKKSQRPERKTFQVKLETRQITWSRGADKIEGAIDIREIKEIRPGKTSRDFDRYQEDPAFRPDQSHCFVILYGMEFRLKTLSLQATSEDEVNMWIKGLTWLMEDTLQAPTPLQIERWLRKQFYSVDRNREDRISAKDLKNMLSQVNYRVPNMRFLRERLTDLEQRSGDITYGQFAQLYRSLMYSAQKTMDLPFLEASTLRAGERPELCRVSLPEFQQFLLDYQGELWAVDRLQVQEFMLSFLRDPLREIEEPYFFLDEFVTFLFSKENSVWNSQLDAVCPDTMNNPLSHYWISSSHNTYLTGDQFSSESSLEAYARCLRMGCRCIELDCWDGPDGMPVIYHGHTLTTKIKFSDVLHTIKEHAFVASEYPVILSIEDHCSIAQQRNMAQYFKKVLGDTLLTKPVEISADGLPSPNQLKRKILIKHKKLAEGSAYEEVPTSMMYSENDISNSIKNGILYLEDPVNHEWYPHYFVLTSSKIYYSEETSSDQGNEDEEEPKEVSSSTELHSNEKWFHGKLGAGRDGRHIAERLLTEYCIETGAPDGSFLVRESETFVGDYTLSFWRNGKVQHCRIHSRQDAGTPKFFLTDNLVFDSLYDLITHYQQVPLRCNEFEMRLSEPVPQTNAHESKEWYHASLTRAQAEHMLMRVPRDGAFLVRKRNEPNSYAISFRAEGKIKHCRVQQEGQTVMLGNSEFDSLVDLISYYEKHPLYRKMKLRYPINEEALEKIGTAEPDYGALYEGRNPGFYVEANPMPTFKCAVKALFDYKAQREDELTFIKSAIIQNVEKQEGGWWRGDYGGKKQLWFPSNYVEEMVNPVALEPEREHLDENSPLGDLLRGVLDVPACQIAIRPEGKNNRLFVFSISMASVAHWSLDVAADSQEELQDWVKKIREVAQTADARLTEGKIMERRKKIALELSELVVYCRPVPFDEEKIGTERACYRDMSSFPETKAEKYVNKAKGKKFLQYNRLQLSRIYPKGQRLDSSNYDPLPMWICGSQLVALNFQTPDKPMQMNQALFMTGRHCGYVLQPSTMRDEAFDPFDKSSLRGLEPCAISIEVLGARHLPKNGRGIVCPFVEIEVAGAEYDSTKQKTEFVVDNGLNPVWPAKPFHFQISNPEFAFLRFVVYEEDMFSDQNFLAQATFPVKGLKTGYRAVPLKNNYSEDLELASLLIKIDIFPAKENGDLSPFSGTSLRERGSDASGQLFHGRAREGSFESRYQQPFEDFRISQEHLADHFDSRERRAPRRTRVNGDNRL

UniProt P27986, sequence (P27986 2-724): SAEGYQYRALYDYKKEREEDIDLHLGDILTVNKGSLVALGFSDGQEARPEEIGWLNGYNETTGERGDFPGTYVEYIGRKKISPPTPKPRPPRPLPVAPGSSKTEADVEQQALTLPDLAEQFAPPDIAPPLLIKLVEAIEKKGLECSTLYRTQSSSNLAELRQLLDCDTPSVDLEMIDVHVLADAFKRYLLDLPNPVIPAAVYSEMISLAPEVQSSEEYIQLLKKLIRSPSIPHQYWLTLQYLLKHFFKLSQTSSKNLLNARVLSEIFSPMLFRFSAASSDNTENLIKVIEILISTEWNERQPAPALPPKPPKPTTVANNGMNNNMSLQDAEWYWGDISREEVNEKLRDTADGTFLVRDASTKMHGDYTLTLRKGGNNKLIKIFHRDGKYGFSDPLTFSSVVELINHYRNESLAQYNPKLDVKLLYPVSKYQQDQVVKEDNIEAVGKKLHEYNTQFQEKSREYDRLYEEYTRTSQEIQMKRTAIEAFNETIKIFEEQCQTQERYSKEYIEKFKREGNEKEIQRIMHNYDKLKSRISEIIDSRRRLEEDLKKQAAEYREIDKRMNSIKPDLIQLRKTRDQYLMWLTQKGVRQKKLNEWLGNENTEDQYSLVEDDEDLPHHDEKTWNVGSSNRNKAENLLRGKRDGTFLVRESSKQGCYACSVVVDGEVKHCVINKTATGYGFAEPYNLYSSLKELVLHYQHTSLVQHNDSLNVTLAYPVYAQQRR
UniProt P06748, sequence (P06748 whole entry): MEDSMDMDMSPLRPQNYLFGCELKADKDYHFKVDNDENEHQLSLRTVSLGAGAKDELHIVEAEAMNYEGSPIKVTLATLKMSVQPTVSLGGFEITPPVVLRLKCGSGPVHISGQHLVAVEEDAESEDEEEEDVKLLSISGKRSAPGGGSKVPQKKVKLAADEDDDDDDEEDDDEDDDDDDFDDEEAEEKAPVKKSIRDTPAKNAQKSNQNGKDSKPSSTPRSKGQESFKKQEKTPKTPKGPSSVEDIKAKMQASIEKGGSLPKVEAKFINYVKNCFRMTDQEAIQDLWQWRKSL

Row | Substance | percentage of the total cellular amount of the substrate bound to NPM/ALK [1] [%] | stoichiometry of the association (ratio) (ratio NPM/ALK:NPM) [2] | percentage of the total cell pool of NPM/ALK bound to the substrate [3] [%] | percentage of the total cell pool of NPM/ALK bound to the substrate [4] [%] | percentage of the total cell pool of NPM/ALK bound to the substrate [5] [%]
1 | phospholipase-Cγ (PLC-γ) (from UniProt P19174 2-1290) (enzyme) | 1 | – | – | – | –
2 | NPM/ALK fusion protein (enzyme) | – | 1 | < 5 | < 5 | < 5
3 | 85 kDa subunit of phosphatidylinositol 3-kinase (PI3-K) (from UniProt P27986 2-724) | 1 | – | – | – | –
4 | Src homologous and collagen (SHC) protein (from UniProt P29353 1-473) | 10 | – | – | – | –
